Experimental data taken from patent EP4772193A1 (Teijin Pharma Limited, dated 2026).
Numbering of substitutions follows the chain as printed. Names may count otherwise.

T1: recombinant human soluble gpNMB (recombinant human gpNMB-FLAG-His) (human, UniProt Q14956 23-498)
T1 sequence: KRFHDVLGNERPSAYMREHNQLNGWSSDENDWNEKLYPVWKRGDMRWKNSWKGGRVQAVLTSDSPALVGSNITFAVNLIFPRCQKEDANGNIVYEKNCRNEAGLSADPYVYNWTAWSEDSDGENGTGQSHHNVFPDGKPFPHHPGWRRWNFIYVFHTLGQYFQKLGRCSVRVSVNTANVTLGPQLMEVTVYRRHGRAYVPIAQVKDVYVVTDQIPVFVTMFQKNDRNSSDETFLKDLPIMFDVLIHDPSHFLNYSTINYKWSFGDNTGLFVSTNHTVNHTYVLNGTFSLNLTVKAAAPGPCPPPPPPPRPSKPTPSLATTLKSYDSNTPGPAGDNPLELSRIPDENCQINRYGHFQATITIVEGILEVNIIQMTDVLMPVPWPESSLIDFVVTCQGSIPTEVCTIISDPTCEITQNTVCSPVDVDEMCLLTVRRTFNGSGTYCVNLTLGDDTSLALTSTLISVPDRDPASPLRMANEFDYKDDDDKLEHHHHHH

B1: hGPN06-1_H1L1 VL S49A (antibody, V domains shown)
VH: QVQLVQSGAEVKKPGASVKVSCKASGYTFTDNWMGWVKQRPGQGLEWIGAIDPSDSFTNYNQNFKGRVTMTVDTSISTAYMELSRLRSDDSAVYFCTRSGYYGSPKLGGDYWGQGTLVTVSS
VL: EIVLTQSPSSLSASVGDRVTITCSASSSISYMHWYQQKSGTAPKLLIYATSNLASGVPSRFSGSGSGTDFTFTISSLQPEDAATYYCHQWNSYPCTFGGGTKLEIK
B2: hGPN06-1_H1L1 VL N91A (antibody, V domains shown)
VH: B1 VH
VL: B1 VL with A49S, N91A
B3: hGPN06-1_H1L1 VL L53A (antibody, V domains shown)
VH: B1 VH
VL: B1 VL with A49S, L53A
B4: hGPN06-1_H1L1 VL S92A (antibody, V domains shown)
VH: B1 VH
VL: B1 VL with A49S, S92A
B5: hGPN06-1_H1L1 VL W90A (antibody, V domains shown)
VH: B1 VH
VL: B1 VL with A49S, W90A
B6: hGPN06-1_H1L1 VL S26A (antibody, V domains shown)
VH: B1 VH
VL: B1 VL with S26A, A49S
B7: hGPN06-1_H1L1 VL M32A (antibody, V domains shown)
VH: B1 VH
VL: B1 VL with M32A, A49S
B8: hGPN06-1_H1L1 VL S27A (antibody, V domains shown)
VH: B1 VH
VL: B1 VL with S27A, A49S
B9: hGPN06-1_H1L1 VL S51A (antibody, V domains shown)
VH: B1 VH
VL: B1 VL with A49S, S51A
B10: hGPN06-1_H1L1 VL T50A (antibody, V domains shown)
VH: B1 VH
VL: B1 VL with A49S, T50A
B11: hGPN06-1_H1L1 VL Q89A (antibody, V domains shown)
VH: B1 VH
VL: B1 VL with A49S, Q89A
B12: hGPN06-1_H1L1 VL S24A (antibody, V domains shown)
VH: B1 VH
VL: B1 VL with S24A, A49S
B13: hGPN06-1_H1L1 VL S28A (antibody, V domains shown)
VH: B1 VH
VL: B1 VL with S28A, A49S
B14: hGPN06-1_H1L1 VL N52A (antibody, V domains shown)
VH: B1 VH
VL: B1 VL with A49S, N52A
B15: hGPN06-1_H1L1 VL T96A (antibody, V domains shown)
VH: B1 VH
VL: B1 VL with A49S, T96A
B16: hGPN06-1_H1L1 VL H33A (antibody, V domains shown)
VH: B1 VH
VL: B1 VL with H33A, A49S
B17: hGPN06-1_H1L1 VL S55A (antibody, V domains shown)
VH: B1 VH
VL: B1 VL with A49S, S55A
B18: hGPN06-1_H1L1 VL P94A (antibody, V domains shown)
VH: B1 VH
VL: B1 VL with A49S, P94A
B19: hGPN06-1_H1L1 VL C95A (antibody, V domains shown)
VH: B1 VH
VL: B1 VL with A49S, C95A
B20: hGPN06-1_H1L1 VL S30A (antibody, V domains shown)
VH: B1 VH
VL: B1 VL with S30A, A49S
B21: hGPN06-1_H1L1 VL H88A (antibody, V domains shown)
VH: B1 VH
VL: B1 VL with A49S, H88A
B22: hGPN06-1_H1L1 VL I29A (antibody, V domains shown)
VH: B1 VH
VL: B1 VL with I29A, A49S
B23: hGPN06-1_H1L1 VH N32A (antibody, V domains shown)
VH: B1 VH with N32A
VL: B1 VL with A49S
B24: hGPN06-1_H1L1 VH S56A (antibody, V domains shown)
VH: B1 VH with S56A
VL: B1 VL with A49S
B25: hGPN06-1_H1L1 VH P53A (antibody, V domains shown)
VH: B1 VH with P53A
VL: B1 VL with A49S
B26: hGPN06-1_H1L1 VH Y27A (antibody, V domains shown)
VH: B1 VH with Y27A
VL: B1 VL with A49S
B27: hGPN06-1_H1L1 VH T30A (antibody, V domains shown)
VH: B1 VH with T30A
VL: B1 VL with A49S
B28: hGPN06-1_H1L1 VH N61A (antibody, V domains shown)
VH: B1 VH with N61A
VL: B1 VL with A49S
B29: hGPN06-1_H1L1 VH S54A (antibody, V domains shown)
VH: B1 VH with S54A
VL: B1 VL with A49S
B30: hGPN06-1_H1L1 VH N63A (antibody, V domains shown)
VH: B1 VH with N63A
VL: B1 VL with A49S
B31: hGPN06-1_H1L1 VH T58A (antibody, V domains shown)
VH: B1 VH with T58A
VL: B1 VL with A49S
B32: hGPN06-1_H1L1 VH Q62A (antibody, V domains shown)
VH: B1 VH with Q62A
VL: B1 VL with A49S
B33: hGPN06-1_H1L1 VH W33A (antibody, V domains shown)
VH: B1 VH with W33A
VL: B1 VL with A49S
B34: hGPN06-1_H1L1 VH Y60A (antibody, V domains shown)
VH: B1 VH with Y60A
VL: B1 VL with A49S
B35: hGPN06-1_H1L1 VH T28A (antibody, V domains shown)
VH: B1 VH with T28A
VL: B1 VL with A49S
B36: hGPN06-1_H1L1 VH N59A (antibody, V domains shown)
VH: B1 VH with N59A
VL: B1 VL with A49S

What follows are binders tested against T1, recombinant human soluble gpNMB … (assay: antigen ELISA, vs hGPN06-1_H1L1).

First: B1
Second: B2
The Relative binding activity of the first is higher: 0.79 for the first, 0.58 for the second.

First: B3
Second: B4
The Relative binding activity of the first is higher: 0.98 for the first, 0.19 for the second.

Compared with B5, B6 is higher in Relative binding activity: 0.13 for the first, 0.75 for the second.

Going from B7 to B8, the Relative binding activity rises from 0.65 to 0.99.

Compared with B9, B10 is lower in Relative binding activity: 0.82 for the first, 0.3 for the second.

First: B11
Second: B12
The Relative binding activity of the first is lower: 0.06 for the first, 0.98 for the second.

First: B13
Second: B14
The Relative binding activity of the first is higher: 1.18 for the first, 0.74 for the second.

Going from B15 to B16, the Relative binding activity falls from 0.83 to 0.28.

Going from B17 to B18, the Relative binding activity falls from 1 to 0.05.

First: B19
Second: B20
The Relative binding activity of the first is lower: 0.45 for the first, 0.58 for the second.

First: B21
Second: B22
The Relative binding activity of the first is lower: 0.08 for the first, 0.27 for the second.

These binders were tested against T1, recombinant human soluble gpNMB … (assay: antigen ELISA).

Compared with B23, B24 is 18-fold lower in EC50: 7.83 nM for the first, 0.429 nM for the second. The second is the more potent here.

Compared with B25, B26 is 87-fold higher in EC50: 0.801 nM for the first, 69.9 nM for the second. The first is the more potent here.

Compared with B27, B28 is 13-fold higher in EC50: 2.02 nM for the first, 26.1 nM for the second. The first is the more potent here.

B29 and B30 are within 1.5-fold of each other in EC50: 0.652 nM for the first, 0.439 nM for the second.

Compared with B31, B32 is 69-fold lower in EC50: 28 nM for the first, 0.406 nM for the second.

First: B33
Second: B34
The EC50 of the first is 4.6-fold lower: 28.1 nM for the first, 128 nM for the second. The first is the more potent here.

Compared with B35, B36 is 15-fold higher in EC50: 1.98 nM for the first, 29.4 nM for the second. The first is the more potent here.

Target: T1, recombinant human soluble gpNMB …
Assay: antigen ELISA
Remark: another data set of the same source

First: B1
Second: B2
The EC50 of the first is 2.6-fold lower: 0.7 nM for the first, 1.84 nM for the second.

First: B3
Second: B4
The EC50 of the first is 3.3-fold lower: 0.564 nM for the first, 1.86 nM for the second. The first is the more potent here.

Compared with B5, B6 is 110-fold lower in EC50: 122 nM for the first, 1.09 nM for the second.

Going from B7 to B8, the EC50 falls from 6.4 nM to 1.56 nM (4.1-fold). The second is the more potent here.

First: B9
Second: B10
The EC50 of the first is 3.4-fold lower: 0.927 nM for the first, 3.19 nM for the second. The first is the more potent here.

Going from B11 to B12, the EC50 falls from 27.5 nM to 1.99 nM (14-fold).

B13 and B14 are within 1.5-fold of each other in EC50: 1.27 nM for the first, 0.85 nM for the second.

Compared with B15, B16 is 42-fold higher in EC50: 1.03 nM for the first, 42.9 nM for the second. The first is the more potent here.

Going from B17 to B18, the EC50 rises from 0.603 nM to 26.4 nM (44-fold). The first is the more potent here.

First: B19
Second: B20
The EC50 of the first is 2.7-fold lower: 3.15 nM for the first, 8.63 nM for the second. The first is the more potent here.

First: B21
Second: B22
The EC50 of the first is 6.4-fold higher: 147 nM for the first, 23 nM for the second.

Target: T1, recombinant human soluble gpNMB …
Assay: antigen ELISA, vs hGPN06-1_H1L1
Remark: another data set of the same source

Going from B23 to B24, the Relative binding activity rises from 0.35 to 1.14.

First: B25
Second: B26
The Relative binding activity of the first is higher: 0.85 for the first, 0.02 for the second.

Compared with B27, B28 is lower in Relative binding activity: 1.23 for the first, 0.04 for the second.

Compared with B29, B30 is higher in Relative binding activity: 0.92 for the first, 1.07 for the second.

Going from B31 to B32, the Relative binding activity rises from 0.04 to 1.14.

Going from B33 to B34, the Relative binding activity falls from 0.06 to 0.04.

First: B35
Second: B36
The Relative binding activity of the first is higher: 1.49 for the first, 0.04 for the second.
